Common to all, as to details: both partners purified
Test [1] has as its target T1, SARS-CoV-2 spike receptor binding domain, His-tagged (T332-K529 with Pro-527 omitted) (SARS-CoV-2, wild-type RBD (P0DTC2 …)).
T1 construct: also called RBD
In words: ITC; […]; iTC200, 25 °C, PBS; […].

In test [2] the target is T2, His-tagged SARS-CoV-2 RBD T332-K529 with Pro-527 omitted (SARS-CoV-2, wild-type RBD (P0DTC2 …)).
T2 construct: also called isolated RBD
In words: crystal structure.

Test [3] deals with T2, His-tagged SARS-CoV-2 RBD T332-K529 …. Briefly: ITC.
Test [4] concerns the target biotinylated RBD (wild type) (SARS-CoV-2, wild-type RBD (P0DTC2 …)). In words: SPR; […]; Biacore T200, PBS pH 7.4 with 0.005% P20, 25 °C. In general terms: Surface plasmon resonance follows binding to a sensor surface in real time, without labels.
The next test concerns the target biotinylated RBD (SARS-CoV-2, wild-type RBD (P0DTC2 …)). Briefly: SPR; Biacore T200, PBS pH 7.4 with 0.005% P20, 25 °C; […]; 1:1 binding model.
Test [5] addresses T3, SARS-CoV-2 spike glycoprotein ectodomain (amino acids 1 to 1,208, RRAR > GSAS, KV > PP, T4 fibritin … (SARS-CoV-2, P0DTC2 sequence with GSAS …, RRAR > GSAS at residues 682 to 685 | KV > PP at residues 986 to 987)).
T3 construct: also called Spike protein; trimeric spike protein
In words: ITC. Background: Isothermal titration calorimetry measures the heat released or taken up as one component is titrated into another.

Test [6] addresses T1, SARS-CoV-2 spike receptor binding …. Briefly: ITC; […]; iTC200, 25 °C, PBS; […]. The source holds these as a separate data set.
Test [7] has as its target T4, SARS-CoV-2 spike glycoprotein ectodomain (amino acids 1 to 1,208, GSAS, PP, T4 fibritin trimerization domain) (SARS-CoV-2, P0DTC2 sequence with GSAS …, RRAR > GSAS at residues 682 to 685 | KV > PP at residues 986 to 987).
T4 construct: also called trimeric spike protein
Briefly: ITC; […]; iTC200, 25 °C, PBS; […].

Numbering of substitutions follows the chain as printed. Names and notes keep the numbering of the source.

B1: H11-A10 (VHH)
VHH: QVQLVESGGGLMQAGGSLRLSCAVSGRTFSTAAMGWFRQAPGKEREFVAAIRWSGGSAYYADSVKGRFTISRDKAKNTVYLQMNSLKYEDTAVYYCAGFSATRSLLSDYATWPYDYWGQGTQVTVSS
As usually defined, the stoichiometry N is the number of molecules, sites or subunits per partner or assembly. With B1, in test [1], the “stoichiometry N” value turned out to be 1.

B2: nanobody H11 (VHH)
VHH: B1 VHH with G98Q, F99T, S100R, A101V
notes: also called parent H11; parent nanobody
With B2, the binding result in test [2] is listed as “binds”.

B3: nanobody H11 V101Y R103S (VHH)
VHH: B1 VHH with G98Q, F99T, S100R, A101Y, R103S
notes: also called double mutant A101Y, R103S
What is called Kd is the free concentration of one partner at which half of the binding sites on the other are occupied at equilibrium, for simple one-to-one binding. Read a low Kd as a tighter complex. In test [3], B3 registered a Kd of 5220 nM and a dH of -11 kcal/mol.

B4: H11-H4 R52A (VHH)
VHH: B1 VHH with R52A, G98Q, F99T, S100H, A101Y, T102V, R103S, S104Y
On to B4, for which, in test [4], the binding result is “no binding (tested: 1 µM)”.

B5: H11-H4 Y104S (VHH)
VHH: B1 VHH with G98Q, F99T, S100H, A101Y, T102V, R103S
With B5, in test [1], the “stoichiometry N” value stood at 1.

B6: nanobody H11-H4 Q98R H100E (D4 hybrid) (VHH)
VHH: B1 VHH with G98R, F99T, S100E, A101Y, T102V, R103S, S104Y
notes: also called H4-D4 hybrid; hybrid nanobody
Molecule B6 yielded a t1/2 with biotinylated RBD of 29 s. Also, in test [3], binding was characterised by a dissociation constant (Kd) of 18 ± 1 nM and the dH was -16.5 kcal/mol. In test [5], this molecule returned a Kd of 21 ± 3 nM and a dH of -14.8 kcal/mol.

B7: nanobody H11-H4 Y104S (VHH)
VHH: B1 VHH with G98Q, F99T, S100H, A101Y, T102V, R103S
In test [3], B7 came in with a Kd of 409 ± 91 nM and a dH of -11 kcal/mol.

B8: H11-H4 R52K (VHH)
VHH: B1 VHH with R52K, G98Q, F99T, S100H, A101Y, T102V, R103S, S104Y
As for B8, in test [4], the binding result was “no binding (tested: 1 µM)”.

B9: nanobody H11-H6 (VHH)
VHH: B1 VHH with F99S, S100K, A101I
For B9, in test [3], the affinity, expressed as Kd, was 57 ± 4.5 nM and the dH is -19.1 kcal/mol.

B10: H11 V101Y R103S (VHH)
VHH: B1 VHH with G98Q, F99T, S100R, A101Y, R103S
Turning to B10, the “stoichiometry N” value in test [1] was determined as 1.

B11: H11-H6 (VHH)
VHH: B1 VHH with F99S, S100K, A101I
Regarding B11, the “stoichiometry N” value in test [6] amounted to 1.

B12: H11-H4 R52E (VHH)
VHH: B1 VHH with R52E, G98Q, F99T, S100H, A101Y, T102V, R103S, S104Y
B12: the binding result in test [4] is “no binding (tested: 1 µM)”.

B13: nanobody H11-B5 (VHH)
VHH: B1 VHH with G98S, F99Y, S100Q
In test [3], B13 gave an equilibrium dissociation constant (Kd) of 53 ± 5.3 nM and a dH of -16.3 kcal/mol.

B14: nanobody H11-A10 (VHH)
VHH: B1 VHH
In test [3], B14 showed a Kd of 60 ± 4.6 nM and a dH of -19.8 kcal/mol.

B15: H11-B5 (VHH)
VHH: B1 VHH with G98S, F99Y, S100Q
Turning to B15, the “stoichiometry N” value in test [1] was found to be 1.

B16: H11-H4 Q98R H100E (D4 hybrid) (VHH)
VHH: B1 VHH with G98R, F99T, S100E, A101Y, T102V, R103S, S104Y
Consider B16, for which the “stoichiometry N” value in test [7] and in test [6] was 1 throughout.

B17: nanobody F2 (VHH)
VHH: QVQLVESGGGLVQAGGSLRLACIASGRTFHSYVMAWFRQAPGKEREFVAAISWSSTPTYYGESVKGRFTISRDNAKNTVYLQMNRLKPEDTAVYFCAADRGESYYYTRPTEYEFWGQGTQVTVSS
Take B17: in test [2], the binding result is listed as “binds”.

The values above are taken from article PMC9351521 (Proceedings of the National Academy of Sciences of the …, 2022).
